Each binder was assayed against prion protein PrP alpha-form, full-length mature, oxidized (Bos taurus, UniProt P10279 P10279:25-241) (assay: EMSA). Settings: tags: 6-octarepeat allele, Met-initiated, E. coli, untagged (Ni-NTA, SP-Sepharose, Superdex 75).
Sequence of prion protein PrP alpha-form, full-length mature, oxidized (P10279 25-241, one chain of several): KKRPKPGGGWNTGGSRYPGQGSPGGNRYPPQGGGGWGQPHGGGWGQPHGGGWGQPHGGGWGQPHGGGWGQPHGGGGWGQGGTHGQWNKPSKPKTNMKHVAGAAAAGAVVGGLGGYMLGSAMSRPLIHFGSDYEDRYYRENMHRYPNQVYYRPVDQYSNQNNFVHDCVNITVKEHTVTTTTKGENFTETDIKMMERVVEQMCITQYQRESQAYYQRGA

Binder	binding result
orphan clone 4 (random region) (ssRNA, 2'-F pyrimidines) RNA: GGGAGACAAGACUAGACGCUCAACUACGUUCCUUAUCCUCCCUUCAGGAACCUGUACACCACAUUGCUUCGACAUGAGACUCACAACAGUUCCCUUUAGUGAGGGUUAAUU	binds
orphan clone 3 (random region) (ssRNA, 2'-F pyrimidines) RNA: GGGAGACAAGACUAGACGCUCAACUACGAACUCAUGACACAAGGAUGCAAUCUCAUCCCGCCAGCCCUUCGACAUGAGACUCACAACAGUUCCCUUUAGUGAGGGUUAAUU	binds
Group I clone 8 (random region) (ssRNA, 2'-F pyrimidines) RNA: GGGAGACAAGACUAGACGCUCAACUUUCGCUAGCGCACAUGCGCACCUCUAUGCGCAUAUACGAACGUUGGCGUUCGACAUGAGACUCACAACAGUUCCCUUUAGUGAGGGUUAAUU	binds
Group I clone 1 (random region) (ssRNA, 2'-F pyrimidines) RNA: GGGAGACAAGACUAGACGCUCAACUUUCCUAGCGCACAUGCGCACCUCUAUGCGUAAUACGAACGUUGACGUUCGACAUGAGACUCACAACAGUUCCCUUUAGUGAGGGUUAAUU	binds
Group I clone 20 (random region) (ssRNA, 2'-F pyrimidines) RNA: GGGAGACAAGACUAGACGCUCAACUUUCCUAGCGCACAUGCGCACUUCUAUGCGUAAUACGAACGUUGGCGUUCGACAUGAGACUCACAACAGUUCCCUUUAGUGAGGGUUAAUU	binds
Group I clone 24 (random region) (ssRNA, 2'-F pyrimidines) RNA: GGGAGACAAGACUAGACGCUCAACUUUCCUAGUGCAUAUGUGCACCUCUAUGCGUAAUACGAACGUUGGCGUUCGACAUGAGACUCACAACAGUUCCCUUUAGUGAGGGUUAAUU	binds
Group I clone 3 (random region) (ssRNA, 2'-F pyrimidines) RNA: GGGAGACAAGACUAGACGCUCAACGUUCCUAACGCACAUGCGCACCUCUAUGCGUAAUACGAACGUUGGCGUUCGACAUGAGACUCACAACAGUUCCCUUUAGUGAGGGUUAAUU	binds
Group I clone 17 (random region) (ssRNA, 2'-F pyrimidines) RNA: GGGAGACAAGACUAGACGCUCAACUUUGCUAGCGCACAUGCUCACCUCUAUGCGUAAUACGAACGUUGACGUUCGACAUGAGACUCACAACAGUUCCCUUUAGUGAGGGUUAAUU	binds
Group I clone 14 (random region) (ssRNA, 2'-F pyrimidines) RNA: GGGAGACAAGACUAGACGCUCAACUUUCCUAGCGCAUAUGCGCACCUCUAUGCGUAAUACGAACGUUGGCGUUCGACAUGAGACUCACAACAGUUCCCUUUAGUGAGGGUUAAUU	binds
Group I clone 7 (random region) (ssRNA, 2'-F pyrimidines) RNA: GGGAGACAAGACUAGACGCUCAACUUUCCUAGCGCACAUGCGCACCUCUAUGCGUAAUACGAACGUUGGCGUUCGACAUGAGACUCACAACAGUUCCCUUUAGUGAGGGUUAAUU	binds
Group I clone 9 (random region) (ssRNA, 2'-F pyrimidines) RNA: GGGAGACAAGACUAGACGCUCAACUUUCCUAGCGCACACGCGCACCUCUAUGCGUAAUACGAACGUUGGCGUUCGACAUGAGACUCACAACAGUUCCCUUUAGUGAGGGUUAAUU	binds
Group I clone 12 (random region) (ssRNA, 2'-F pyrimidines) RNA: GGGAGACAAGACUAGACGCUCAACUUUCCUAGCGCACAUGCGCACCUCUAUGCGUAAUACGAACGUCGGCGUUCGACAUGAGACUCACAACAGUUCCCUUUAGUGAGGGUUAAUU	binds
Group I clone 27 (random region) (ssRNA, 2'-F pyrimidines) RNA: GGGAGACAAGACUAGACGCUCAACUUUCCUAACGCACAUGCGCACCUCUAUGCGUAAUACGAACAGUGAGAUUCGACAUGAGACUCACAACAGUUCCCUUUAGUGAGGGUUAAUU	binds
Group I clone 19 (random region) (ssRNA, 2'-F pyrimidines) RNA: GGGAGACAAGACUAGACGCUCAACUUUCCUAGCGCACAUGCGCACCUCUACGCGUAAUACGAACGUUGACGUUCGACAUGAGACUCACAACAGUUCCCUUUAGUGAGGGUUAAUU	binds
Group I clone 6 (random region) (ssRNA, 2'-F pyrimidines) RNA: GGGAGACAAGACUAGACGCUCAACUGUCCUAACGCACACGCGCACCUCUAUGCGUAAUACGAACGUUGGCGUUCGACAUGAGACUCACAACAGUUCCCUUUAGUGAGGGUUAAUU	binds
Group I clone 4 (random region) (ssRNA, 2'-F pyrimidines) RNA: GGGAGACAAGACUAGACGCUCAACUCUCCUAACGCACAUGCGCACCUCUAUGCGUAAUACGAACGUUGGCGUUCGACAUGAGACUCACAACAGUUCCCUUUAGUGAGGGUUAAUU	binds
Group I clone 10 (random region) (ssRNA, 2'-F pyrimidines) RNA: GGGAGACAAGACUAGACGCUCAACUUCCCUAGCGCACAUGCGUACCUCUAUGCGUAAUACGAACGUUGGCGUUCGACAUGAGACUCACAACAGUUCCCUUUAGUGAGGGUUAAUU	binds
Group I clone 2 (random region) (ssRNA, 2'-F pyrimidines) RNA: GGGAGACAAGACUAGACGCUCAACUUUCCUAACGCACAUGCGCACCUCUAUGCGUAAUACGAACGUUGGCGUUCGACAUGAGACUCACAACAGUUCCCUUUAGUGAGGGUUAAUU	binds
Group I clone 5 (random region) (ssRNA, 2'-F pyrimidines) RNA: GGGAGACAAGACUAGACGCUCAACUUUCCUAACGCACACGCGCACCUCUAUGCGUAAUACGAACGUUGGCGUUCGACAUGAGACUCACAACAGUUCCCUUUAGUGAGGGUUAAUU	binds
Group I clone 13 (random region) (ssRNA, 2'-F pyrimidines) RNA: GGGAGACAAGACUAGACGCUCAACUCUCCUAGUGCACAUGCGCACCUCUAUGCGUAAUACGAACGUUGGCGUUCGACAUGAGACUCACAACAGUUCCCUUUAGUGAGGGUUAAUU	binds
Group I clone 15 (random region) (ssRNA, 2'-F pyrimidines) RNA: GGGAGACAAGACUAGACGCUCAACUUUCCUAGCGCAUAUGCGCACCUAUAUGCGUAAUACGAACGUUGGCGUUCGACAUGAGACUCACAACAGUUCCCUUUAGUGAGGGUUAAUU	binds
Group I clone 16 (random region) (ssRNA, 2'-F pyrimidines) RNA: GGGAGACAAGACUAGACGCUCAACUUUCCUAGCGCAUAUGCGCACCUCUAUGCGUAAUACGAACGUCGGCGUUCGACAUGAGACUCACAACAGUUCCCUUUAGUGAGGGUUAAUU	binds
Group I clone 26 (random region) (ssRNA, 2'-F pyrimidines) RNA: GGGAGACAAGACUAGACGCUCAACUUUCCUAACGCAUAUGUGCACCUCUAUGCGUAAUACGAACGUUGACGUUCGACAUGAGACUCACAACAGUUCCCUUUAGUGAGGGUUAAUU	binds
Group I clone 22 (random region) (ssRNA, 2'-F pyrimidines) RNA: GGGAGACAAGACUAGACGCUCAACUUUCCUAAUGCACAUGCGCACCUCUAUGCGUAAUACGAACGUUGACGUUCGACAUGAGACUCACAACAGUUCCCUUUAGUGAGGGUUAAUU	binds
Group I clone 23 (random region) (ssRNA, 2'-F pyrimidines) RNA: GGGAGACAAGACUAGACGCUCAACUUUCCUAACGCAUAUGCGCACCUCUAUGCGUAAUACGAACGUUGACGUUCGACAUGAGACUCACAACAGUUCCCUUUAGUGAGGGUUAAUU	binds
Group I clone 18 (random region) (ssRNA, 2'-F pyrimidines) RNA: GGGAGACAAGACUAGACGCUCAACUUUCCUAGCGCACAUGCGCACCUCUAUGCGUAAUACGAACGUAGACGUUCGACAUGAGACUCACAACAGUUCCCUUUAGUGAGGGUUAAUU	binds
Group I clone 11 (random region) (ssRNA, 2'-F pyrimidines) RNA: GGGAGACAAGACUAGACGCUCAACUUUGCUAGCGCACAUGCGCACCUCUAUGCGUAGUACGAACGUUGGCGUUCGACAUGAGACUCACAACAGUUCCCUUUAGUGAGGGUUAAUU	binds
orphan clone 5 (random region) (ssRNA, 2'-F pyrimidines) RNA: GGGAGACAAGACUAGACGCUCAAUAUCAACAUUAGGGCUCCUUGGGGACCAGCGUCUCCUUGCAGCCCCGAUUCGACAUGAGACUCACAACAGUUCCCUUUAGUGAGGGUUAAUU	binds
orphan clone 2 (random region) (ssRNA, 2'-F pyrimidines) RNA: GGGAGACAAGACUAGACGCUCAACUCCUCUAGCACCAUAUCCAAGCUACAACUUCACAACGACUCGGCCUUCGACAUGAGACUCACAACAGUUCCCUUUAGUGAGGGUUAAUU	binds
orphan clone 6 (random region) (ssRNA, 2'-F pyrimidines) RNA: GGGAGACAAGACUAGACGCUCAAGCUGACCACCGCCAACGCAACCUCCAAUGACUUGGAUCACCUAGACGAUUUCGACAUGAGACUCACAACAGUUCCCUUUAGUGAGGGUUAAUU	binds

Reference: patent US20030162225 (published 2003)
